Results on 16 molecules are retold here after patent EP4591887A1, “GPC3 ANTIBODY-DRUG CONJUGATE AND USE THEREOF” (priority 2022, dated 2024).

Positions count from the first letter of the chain named.

First the molecules themselves.
B1: GC33 antibody (Chugai Pharmaceutical) (antibody, V domains shown)
VH: QVQLVQSGAEVKKPGASVKVSCKASGYTFTDYEMHWVRQAPGQGLEWMGALDPKTGDTAYSQKFKGRVTLTADKSTSTAYMELSSLTSEDTAVYYCTRFYSYTYWGQGTLVTVSS
VL: DVVMTQSPLSLPVTPGEPASISCRSSQSLVHSNGNTYLHWYLQKPGQSPQLLIYKVSNRFSGVPDRFSGSGSGTDFTLKISRVEAEDVGVYYCSQNTHVPPTFGQGTKLEIK
notes: Control antibody, prepared as in US 7919086 B2; Whole antibody; Detected with anti-human IgG
B2: Hu 52H5D3B8-8 (antibody, human IgG1, kappa, V domains shown)
VH: EVQLVQSGAEVKKPGASVKVSCKASGYTFTDYEMHWVRQAPGQGLEWMGAIHPGSGGTAYNQKFKGRVTMTADKSISTAYMELSRLRSDDTAVYYCTRFYSYAYWGQGTLVTVSS
VL: DVVMTQTPLSLSVTPGQPASISCRSSQSLVHSNGNTYLQWYLQKPGQSPQLLIYKVSNRFSGVPDRFSGSGSGTDFTLKISRVEAEDVGVYFCSQSIHVPYTFGGGTKVEIKR
notes: also called humanized GPC3 antibody Hu 52H5D3B8-8
B3: Hu 52H5D3B8-7/8 CDRs with Y035 FRs (antibody, V domains shown)
VH: B2 VH with F29H, T30S, M70I, I76T, R85S, D89E, T97A, S115A
VL: B2 VL with V2I, S12P, Q17E, F92Y, G105Q, V109L
B4: Y035 antibody (CARSGEN Therapeutics), humanized (antibody, V domains shown)
VH: B2 VH with F29H, T30S, G57D, K63R, M70I, I76T, R85S, D89E, T97A, S115A
VL: B2 VL with V2I, S12P, Q17E, F92Y, H98Y, G105Q, V109L
B5: Y035 CDRs with Hu 52H5D3B8-7 FRs (antibody, V domains shown)
VH: B2 VH with G57D, K63R
VL: B1 VL with S7T, P12S, E17Q, H39Q, N96S, T97I, H98Y, P101Y, Q105G, L109V
notes: built here from the pieces; detected with anti-human IgG
B6: Hu 52H5D3B8-7 (antibody, human IgG1, kappa, V domains shown)
VH: B2 VH
VL: B2 VL with F92Y
notes: also called humanized GPC3 antibody Hu 52H5D3B8-7
B7: GC33-ZLA (antibody, V domains shown)
VH: B1 VH
VL: B1 VL
modifications: ZLA linker-payload on cysteine thiols of the antibody freed by TCEP reduction of disulfide bonds; positions not given
notes: Whole antibody; also called GC33 ADC; Anti-GPC3-ZLA
B8: GC33-L4-D4 (antibody, V domains shown)
VH: B1 VH
VL: B1 VL
modifications: MC-MMAF (L4-D4) on cysteine thiols of the antibody freed by TCEP reduction of disulfide bonds; positions not given
notes: Whole antibody; also called GC33 ADC; Anti-GPC3-L4-D4
B9: Hu 52H5D3B8-8-ZLA (antibody, human IgG1, kappa, V domains shown)
VH: B2 VH
VL: B2 VL
modifications: ZLA linker-payload on cysteine thiols freed by TCEP reduction of disulfide bonds; positions not given
notes: Constant regions as for Hu 52H5D3B8-8; also called Hu 52H5D3B8-8 ADC; Anti-GPC3-ZLA
B10: Hu 52H5D3B8-8-L4-D4 (antibody, human IgG1, kappa, V domains shown)
VH: B2 VH
VL: B2 VL
modifications: MC-MMAF (L4-D4) on cysteine thiols freed by TCEP reduction of disulfide bonds; positions not given
notes: Constant regions as for Hu 52H5D3B8-8; also called Hu 52H5D3B8-8 ADC; Anti-GPC3-L4-D4
B11: GC33-L3-D3 (antibody, V domains shown)
VH: B1 VH
VL: B1 VL
modifications: MA-PEG4-VC-PAB-DMEA-Duocarmycin SA (L3-D3) on cysteine thiols of the antibody freed by TCEP reduction of disulfide bonds; positions not given
B12: GC33-L1-D1 (antibody, V domains shown)
VH: B1 VH
VL: B1 VL
modifications: MC-vc-PAB-MMAE (L1-D1) on cysteine thiols of the antibody freed by TCEP reduction of disulfide bonds; positions not given
B13: Hu 52H5D3B8-8-L1-D1 (antibody, human IgG1, kappa, V domains shown)
VH: B2 VH
VL: B2 VL
modifications: MC-vc-PAB-MMAE (L1-D1) on cysteine thiols freed by TCEP reduction of disulfide bonds; positions not given
B14: Hu 52H5D3B8-7-L1-D1 (antibody, human IgG1, kappa, V domains shown)
VH: B2 VH
VL: B2 VL with F92Y
modifications: MC-vc-PAB-MMAE (L1-D1) on cysteine thiols freed by TCEP reduction of disulfide bonds; positions not given
B15: Hu 52H5D3B8-8-L3-D3 (antibody, human IgG1, kappa, V domains shown)
VH: B2 VH
VL: B2 VL
modifications: MA-PEG4-VC-PAB-DMEA-Duocarmycin SA (L3-D3) on cysteine thiols freed by TCEP reduction of disulfide bonds; positions not given
B16: Hu 52H5D3B8-7-L4-D4 (antibody, human IgG1, kappa, V domains shown)
VH: B2 VH
VL: B2 VL with F92Y
modifications: MC-MMAF (L4-D4) on cysteine thiols freed by TCEP reduction of disulfide bonds; positions not given

In the first assay the target is T1, human GPC3 (Glypican-3) (human, UniProt P51654 25-580).
T1 construct: whole, on cells; the cell line is named under assay or readout
Briefly: FACS on HepG2 cells.
Details: not given
For orientation: EC50 means the concentration that produces a half-maximal response. B1 yielded an EC50 of 0.745 nM.
As to B2, the EC50 was found to be 0.351 nM.
The same measure, in the same setting: to B3 belongs 0.769 nM; to B4, 1.25 nM.
Still for that read-out and setting: to B5 belongs 0.611 nM.
Still for that read-out and setting: to B6 belongs 0.405 nM.

The target in the next assay is T1, human GPC3 (Glypican-3). Kind of assay: FACS on Huh-7 cells.
Details: not given
B1 returned an EC50 of 0.953 nM.
Same read-out and setting: to B2 belongs 0.418 nM; to B3, 0.782 nM.
Turning to B4, a half-maximal response (EC50) required 1.18 nM.
Still for that read-out and setting: to B5 belongs 0.667 nM; to B6, 0.464 nM.

The next assay addresses T1, human GPC3 (Glypican-3). Kind of assay: FACS on HepG2 cells.
Details: not given
This is another data set of the same source.
The molecule B1 showed an EC50 of 0.269 µg/mL.
The same measure, in the same setting: to B7 belongs 0.143 µg/mL; to B8, 0.112 µg/mL.
Same read-out and setting: to B2 belongs 0.0743 µg/mL.
The same measure, in the same setting: to B9 belongs 0.0569 µg/mL.
In turn, B10 showed an EC50 of 0.0693 µg/mL.

The target of a further assay is T1, human GPC3 (Glypican-3). Kind of assay: cell-based or functional assay.
Details: not given
Take B2: the “internalization on HepG2 cells (pHAb dye-labelled anti-hIgG secondary antibody, 48 h): EC50” value was 0.78 µg/mL and the “internalization on HepG2 cells (pHAb dye-labelled anti-hIgG secondary antibody, 48 h): Top” value was found to be 62400.
On the same counts, the results for B3 are 1.14 µg/mL and 59200.
On the same counts, the results for B4 are 1.08 µg/mL and 52000.
On the same counts, the results for B5 are 1.11 µg/mL and 52200.
Take B6: the “internalization on HepG2 cells (pHAb dye-labelled anti-hIgG secondary antibody, 48 h): EC50” value turned out to be 0.72 µg/mL and the “internalization on HepG2 cells (pHAb dye-labelled anti-hIgG secondary antibody, 48 h): Top” value is 58600.

The target of another assay is T1, human GPC3 (Glypican-3). Briefly: cell-based or functional assay.
Details: not given
This is another data set of the same source.
As to B1, the “Percentage reduction of GPC3 on cell surface (%), Huh7 cells, 2 h at 37°C against ice, FACS” value worked out at 60%.
The same measure, in the same setting: to B11 belongs 59.9%; to B7, 59%; to B12, 63.1%.
For B8, the “Percentage reduction of GPC3 on cell surface (%), Huh7 cells, 2 h at 37°C against ice, FACS” value is 61.3%.
On the same count and under the same terms, to B2 belongs 65.3%; to B9, 64.3%.
With B13, the “Percentage reduction of GPC3 on cell surface (%), Huh7 cells, 2 h at 37°C against ice, FACS” value came out at 66.5%.
On the same count and under the same terms, to B14 belongs 70.8%; to B15, 65%.
Still for that read-out and setting: to B10 belongs 63.4%.
Same read-out and setting: to B6 belongs 64.4%.

A further assay deals with T1, human GPC3 (Glypican-3). Kind of assay: cell-based or functional assay.
Details: not given
The source holds these as a separate data set.
For B11, the “EC50 value of cytotoxicity, Huh7 cells (96 h, PrestoBlue)” value (“EC50 value of cytotoxicity, Huh7 cells” for short) was 0.0694 µg/mL.
For the molecule B7, the “EC50 value of cytotoxicity, HepG2 cells (96 h, PrestoBlue)” value was determined as 0.0892 µg/mL and the “EC50 value of cytotoxicity, Huh7 cells” value worked out at 0.0148 µg/mL.
On the same counts, the results for B12 are 0.0732 µg/mL and 0.0786 µg/mL.
Take B8: the “EC50 value of cytotoxicity, Huh7 cells” value was 0.00882 µg/mL.
As to B9, the “EC50 value of cytotoxicity, HepG2 cells (96 h, PrestoBlue)” value came out at 0.0391 µg/mL and the “EC50 value of cytotoxicity, Huh7 cells” value is 0.00352 µg/mL.
On the same counts, the results for B13 are 0.0409 µg/mL and 0.038 µg/mL.
Regarding B16, the “EC50 value of cytotoxicity, Huh7 cells” value came out at 0.00455 µg/mL.
Still for that read-out and setting: to B15 belongs 0.0274 µg/mL.

The next assay concerns PDX model LIV#219 of nude mice with human liver cancer. Kind of assay: Antitumor activity in LIV#219 liver cancer PDX model. The note with it: 3 mg/kg, Day 26. The class given is in vivo, BALB/c nude mice. The protocol: The antitumor activity of GPC3-ADCs was tested in an LIV#219 liver cancer PDX model. The model has a higher expression level of GPC3 RNA, and a positive expression of GPC3 as confirmed by FACS analysis.
The process of the establishment of a PDX model of nude mice with human liver cancer was as follows: A tumor tissue with a volume size of about 15-30 mm^3 was transplanted subcutaneously under the back of the BALB/c nude mice. When the tumor volume reached 250-360 mm^3, the mice were divided into a total of 4 groups by a randomized block method, with 6 mice per group, ensuring uniformity in tumor volume and balance in body weight between these groups. The groups included a vehicle group, a 3 mg/kg GC33-L1-D1 administration group, a 3 mg/kg Hu 52H5D3B8-7-L1-D1 administration group, and a 3 mg/kg Hu 52H5D3B8-8-L1-D1 administration group.
Data analysis: During the experiment, the tumor volume was measured twice a week. The calculation formula for the tumor volume (TV) is: TV = l × w^2 / 2, in which l and w represent the measured length and width of the tumor, respectively. According to the measurement results, the relative tumor volume (RTV) was calculated by RTV = Vf / V0, in which V0 is the tumor volume measured at the time of grouping for administration (i.e., Day 0), and Vf is the tumor volume measured on the last day. […]
Take B12: the “relative tumor proliferation rate (T/C) (%)” value is recorded as 54.90% and the “tumor growth inhibition rate (TGI %)” value is 45.10%.

In the next assay the target is T1, human GPC3 (Glypican-3). Kind of assay: FACS on HepG2 cells, top of the fitted fluorescence curve.
Details: not given
B1 came in with a Top of 64100.
On to B7, for which the Top came to 68000.
Still for that read-out and setting: to B8 belongs 60200; to B2, 75000; to B9, 69100.
Same read-out and setting: to B10 belongs 72900.

For another assay, the target named is T1, human GPC3 (Glypican-3). Briefly: FACS on CHO-K1 cells overexpressing human GPC3 (GPC3-CHO-K1).
Details: not given
Take B1: the EC50 is 0.956 nM.
Still for that read-out and setting: to B2 belongs 0.411 nM.
On the same count and under the same terms, to B3 belongs 0.763 nM; to B4, 1.46 nM; to B5, 0.907 nM.
Still for that read-out and setting: to B6 belongs 0.446 nM.
